Results from the nanobody polyreactivity screen of Harvey et al. (2022).

Test: yeast display, Sf9 membrane polyspecificity reagent, FACS + sequencing; frameworks hold sequencing errors
How it was run: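 Galactose-induced (36–48 hours) yeast carrying a synthetic nanobody display library were exposed to 10% biotinylated, detergent-solubilized Sf9 membrane reagent at 4 °C for 1 hour. FACS followed streptavidin microbead enrichment, using low and high (top ~1%) gates for expression (anti-HA) and reagent binding (streptavidin). Colony PCR, MiSeq 2 × 250 sequencing and CDR-length filtering followed. Labels for polyreactivity reflect the gate of origin.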

Sequence	polyreactivity (PSR sort gate)
QVQLVESGVGLVQAGGSIRLSCAASGRTFRYYTMGWYRQAPGKEREFVAAISSTGGTYYADSVKGRFTISRDNAKNTVYLQMNSLKPEDTAVYYCAATFIQVVVNVQLYDYDYWGQGTQVSVSS	low polyreactivity
QVQLVESGGGLVQAGGSLRLTCAASRSIFYPNAMGWYRQAPGKETELVAAISSSGGTNYADSVKGRFTISRDNAQNTVYLQMNSLKPEDTAVYYCNARDKVRYRYSLMDYWGQGTQVTVSS	low polyreactivity
QVQLVESGGGLVQAGGSLRLSCAASGIIFIYYTMGWYRQAPGTDRELVAVITTSGDGTYYADSVKGRFTISRDNAKNTGYLQMNSLKPEDTSVYYCAASYSTWVSTRNDYWGQGTQVTVSS	low polyreactivity
QVQLVESGGGLVQAGGSLRLSSAASGRIFTINAMGWYRQAPGKERELFASSRSTGGSTYYADSVKGRFTISRDNAKNTFYLQMYSLKPVDTAVYYCDAQYANSIDYRSSYRRDYWGQGTQVTVSS	low polyreactivity
QVQLVESGGGLVQAGGSLRLSCAASGSTFSRYAMGWYRQAPGKERELVAAISRGGNTYYADSVKGRFTISRDNAKNTVYLQMNSLKPEDTAVYYCNRYSKLYNTMDYWGQGTQVTVSS	high polyreactivity
QVQLVESGGGLVQAGGSLRLSCAASGFTFLWYAMGWYRQAPGKERELVAGISSDGSTYADSVKGRFTISRDNAKNTVYLQMNSLKQEDTAVYYCAAVNNSSIRDNDYWGQGTQVTVSS	low polyreactivity
QVQLVESGRGLFKAGGSLRLSCAASGSIFDGNAMGWYRQAPGKERELVATMSWCGGSTYYADSVKGRFTISRDNSKNNVYLQMYSVNPEETAVYHCGKTPYRRYRYGGYTYSTYDYWGQGTQVTVSS	low polyreactivity
QVQLVESGGGLVQAGGSLRLSCAASGRTFKYYAMGWYRQAPGKERELVAGISSTGRTNYADSVKGRFTISRDNAKNTVYLQMNSLKPEDTAVYYCNAERKSFGKFDYWGQGTQVTVSS	high polyreactivity
QGQLVESGGGLVQAGGSLRLTCSASGSTFDSYGMGWYRQAPGKERELVASISSRGGSTYYADSVKGRFTISRDTAKNTVYLQMNSLKPEDTAVYYCAADWLSWFHGYGMYYWGQGTQVTVSS	low polyreactivity
QVQLVESGGGLVQAGGSLRLSCAASGSIFPDNTMGWYRQAPGKERELVAAIDGRGGTTYYADSVKGRFTISRDNAKNTVYLQMNSLKPEDTAVYYCNAGVWTYWHIEMDYWGQGTQVTVSS	low polyreactivity
QVQLVESGGGLVQAGGSLRLSCAASGLTFIYYAMGWYRQAPGKERELVAAISVSGGSTSYADSVKGRFTISRDNAKNTVYLQMNSLKPEDTAVYYCAADWFVHKPRYQYSFDYWGQGTQVTVSS	low polyreactivity
QVQLVESGGGLVQAGGSLRLSCAASGFTFSHYAMGWYRQAPGKERELVAAITASGGNTYYADSVKGRFTISRDNAKNTVYLQMNSLKPEDTAVYYCNAVSLKFTRKYDYWGQGTQVTVSS	high polyreactivity
QVQLVESGGGLVQAGGSLRLSCAASGSTFPYYTMGWYRQAPGKERELVAAITWRGGRTYYADSVKGRFTISRDNAKYTVYLQMNSLKPEDTAVYYCNAYGIDTGDYWGQGTQVTVSS	high polyreactivity
QVQLVESGGGLVQAGGSLRLSCAPSGLTYRRYTMGWYRQAPGKEREFVAAISWGGDSTYYADSVKGRFTISRDNAKNTVYLQLTSLKPEDTAVYYCAADFLYIYNYWGQGTQVTVSS	high polyreactivity
QVQLVESGGGLVQAGVSLRISCAASGSTFRGYVMGWYRPAPGKERELVAAISRSGTSTYYADSVKGRFTISRDNAKNTVYLQINSLKPEDTAVYYCAAQLYGHGEDYWGQGTQVTVSS	high polyreactivity
QVQLVESGGGLVQAGGSLRLSCAASGSTFWLYAMGWYRQAPGKERELVAAISSTGNTNYADSVKGRFTISRDNAKNTVYLQMNSLKPEDTAVYYCAADSWDYDSRMDYWGQGTQVTVSS	low polyreactivity
QVQLVESGGGLVQAGGSLRLICAASGRIFATYTMGWYRQAPGKERELVAAISRNGGSTYYADSVKGRFTISRDYAKNTVYLQMNSLKTEDTAVYYCNAERRDDRGFDYWGQGTQVTVSS	low polyreactivity
QVQLVESGGGLVQAGGSLRLSCAASGIIFRRYAMGWYRQAPGKEREFVAAIRYTGGGTYYADSVKGRFTISRDNAKNTVYFQMNSLKPEDTAVYYCAASPWSRGSRWRPFDYWGQGTQVTVSS	high polyreactivity
QVQLVESGGGLVQAGGSLRLSCAASGSTFLVYAMGWYRQAPGKERELVAVIDNGGDTYYADSVKGRFTISRDNAKNTVYLQMNSLIPEDTEVYYCAADLSYLGYWEYDYWGQGTQVTVSS	low polyreactivity
HVQLVESGGGLVQAGGSLRLSCAASGIIFNLYAMGWYRQAPVKERELFAAISWSGGSTYYADSVKGRFTISRDNAKNTVYLKMNSLKPEDTAVYYCAAQRSVFKSFRTTYVRYDYWGQGTQVTVSS	high polyreactivity
QDQLVESGGGLVQAGGSLRISCAASGITFRYYAMGWYRQAPGKERELVAAITSGGRTYYADSVKGRFTISRDNAKNRVYLQMISLKPEDTAVYYGNAVTFSFYLYAWGQGTQVTVSS	high polyreactivity
QVQHVESGGGLVQAGGSLRLSCAASGRTFFENAMGWYRQAPGKEMELVAAISWDGGTTYADSVKGRFSISRDNAKNTVYLQMNSLKPEDTAVYYCNAEVRSNDARGDNDYCGQGTQVTVSS	low polyreactivity

Sequence	polyreactivity (PSR sort gate)
QVQLVESGGGLVQAGGSLRLSCAASGRTFAYNVMGGYRQAPGKERELVAGISFGAGSTYYADSVKGRFTISRDNAKNTVYLQMNSLNPEDTAVYYCATRRRGTRYQLGYDYWGQGTQVTVSS	high polyreactivity
QVQLVESGGGLVQAGGSLRLICAASGFIFKWNAMGWYRQAPGKERELVAAITSGGGTYYADSVKGRFTISRDNAKNTVYLQMNSLKPEDTAVYYCAALGRYWPARRFDYWGQGTQVTVSS	high polyreactivity
QVQLVESGGGLVQARRSLRLSCAASGSTFVGNTMGWYRQAPGTERELVAAISRRGGGTNYADSVKGRFTISRDNAKNTVYLQMNSLKPEDTAVYYCAAKLVYPGKFNYWGQGTQVTVSS	high polyreactivity
QVQLVESGGGLVQAGGSLRISCAASGFIFRYYAMGWYRQAPGKERELVARITNGGSTKYSDSVKGRFTISRDNAKTTVYLQMNSLKPEDTAVYYCNTDGLVRNGPFFSWGQGTQVTVSS	low polyreactivity
LVQLVESGGGLVQAGGSLRLSCAASGYIIGFYVMGWYRQAPGKERELVAVIDYGSDNTYYADSVLGRYTISRDNAKNTVYLQMNSLKPEETAVYYCAAEWYKSNYYDYDTWGQGTQVTVSS	high polyreactivity
QVQLVESGGGLVQAGGSLRLSCAASGSIFRQYAMGWYRQAPPKDRELVAAISSVGRTYYADSVKGRFTISRDNAKNTVYLQMNSLKPEDTAVYYCAARPYKFARYDYWGQGTQVTVSS	high polyreactivity
QVQLVESVGGLVQAGGSLRLSCAASGRIFSTYAMGWYRQAPGKERELVAAIRFSGTSTYADSVKGRFTISRDNAKNTVYLQMNSLKPEDTAVDYCAAQRYTYYRRYGYLGQGTQVTVSS	high polyreactivity
QVQLVESGGGLVQAGGSLRLSCAASGRTFSRYAMGWYRQAPGKERELVAAISSSGGSTYYADSVKGRFTISRDNAKNTVYLQMNSLKPEDTAVYYCAKYFIRDNRYDYWGQGTQVTVSS	high polyreactivity
QVQLVESGGGLVQAGGSLRLSCAASGFIFFKYAMGWYRQAPGKERELVAGITSGGSTYYADSVKGRFTISRDNAKNTVYLQMNSLKPEDTAVYYCAAYVKRESAPYGYWGQGTQVTVSS	low polyreactivity
QVQLVESGGGLVQAGGSLRLSCAASGSIFSFYTMGWYRQAPGKERELVASISRSGGTTYYADSVKGRFTISRDNAKNTVYLQMNSLKPEDTAVYYCAVRQAKYGGAYYGYYYWGQGTQVTVSS	high polyreactivity
QVQLVASGGGLVQAGGSHRLSCAASGRIFYYYAMGWYRQAPGKERELVASINSGGSTYYADSVKGPFTISRDNAKHTVYFQMNSLKPEDTACYYCAAGFQLVKGSLSGRAAYYYWGQGTQVTVSS	high polyreactivity
QVQLVESGGGLVQAGGSLRLSCAASGSISYYNAMGWYRQAPGKERELVATITDSGGSTYYADSVKGRFTISRDNAKNTVYLQLNSLKPEDTAVYYCAVDYSEWYSIYDYWGQGTQVTVSS	low polyreactivity
QVQLVESGGVLVQAGGSLRLSCAASGNAMGWYRQAPGKERELVAAITRRGGSTYYADSVKGRFTISRDNAKNTVYLQINSLIPEDTAVYYCAADNPSYNLWYGYWGQGTQVTVSS	low polyreactivity
QFHLVESGGGLVQAGGSLRLSCAAAGYTYGYYTMGWYRQAPGKERELVAAIDSGGRTNYADSVKGRFTISRDNAKNTVYLQMNSRKPEDTAVYYCAAESPLYWVDDFESGWRYYYWGQGTQVTVSS	low polyreactivity
QVQLVESGGGLVQAGGSLRLSCAASGITFYGYAMGWYRQAPGKERELVAAISKSGGSTHYADSVKGRFTISRDNAKNTVYLQMNSLKPEDTAVYYCATEGYYYYTSYDYWGQGTQVTVSS	low polyreactivity
QVQLVESGGGLVQAGGSLRLSCAATGRTFIPYAMGWYRQAPGKERELVAAIRTTGGSTYYADSVKGRFTISRDNAKNTVYLQMNSLKPEDTAVYYCAATSRQRPYDYWGQGTQVTVSS	high polyreactivity
QVQLVESGGGLVQAGGSLRLICAASGRIFNVYAMGWYRQAPGKETELVASITSAGSTYYADSVKGRFTISRDNAKNTVYLQMNSLKPEDTAVYYCNAESYSTWSFGHRYEYDYWGQGTQVTVSS	low polyreactivity
QVHLVESGGGLVQAGGSLRLSCAASGRTFFRYAMGWYTQAPGKERELVAAITRSGGSTYYADSVKGRFTISRDNAKNTVYLEMNSLKPEDTAVYYCAAPREAYSRGYDSWGQGTQVTVSS	high polyreactivity
QVQLVESGGGLVQAGGSLRLSCAASGSTFEIYAMGWYRQAPGKERELVAAISSGGSTNYADSVKGRFTISRDNAKNTVYLQMNSLKPEDTAVYYCVYAIQFDYWGQGTQVTVSS	low polyreactivity
QVQLVESGGGLVQAGGSLRLSCAASGSTFPTNTMGWYRQAPGKERELVATIRKSSGRTYYADSVKGRFTISRDNAKNTVYLQMNSLKPEDTAVYYCNARRYSGALRYDYWGQGTQVTVSS	high polyreactivity
QVQLVESGGGLVQAGGSLRLSCAASGITFSLYAMGWYRQAPGKERELVAAITRSGGSTYYADSVKGRFTISRDNAKNTVYLQMNSLKPEDTAVYYCAAKRPGVRRYYYWGQGTQVTVSS	high polyreactivity
